Assay results from US20050048603A1 (priority 2001, published 2005).
Where a chain is given by its changes, count along the chain named.

T1: mycoAC204-443R376A (Mycobacterium tuberculosis, UniProt P9WQ35 204-443)
T1 sequence: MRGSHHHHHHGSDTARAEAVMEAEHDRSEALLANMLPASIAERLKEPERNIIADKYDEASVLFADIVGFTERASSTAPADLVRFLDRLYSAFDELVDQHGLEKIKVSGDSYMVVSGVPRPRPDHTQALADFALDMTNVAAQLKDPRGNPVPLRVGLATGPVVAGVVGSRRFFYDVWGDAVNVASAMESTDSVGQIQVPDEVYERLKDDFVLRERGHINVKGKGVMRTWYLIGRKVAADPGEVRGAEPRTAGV

B1: mycoAC204-443 (protein)
chain: T1 sequence with A185R
B2: mycoAC204-443D300A (enzyme)
chain: T1 sequence with D109A, A185R
B3: mycoAC204-443D256A (enzyme)
chain: T1 sequence with D65A, A185R

Columns and labels:
mycoAC204-443R376A = molecular target: T1, mycoAC204-443R376A

Row | Binder | specific adenylyl cyclase activity against protein concentration (P9WQ35) | Kd (mycoAC204-443R376A)
1 | B1 | From 50 to 300 nM it increased five-fold | 
2 | B2 |  | 2 µM
3 | B3 |  | 2 µM
